In paper PMC9278869:

Molecular target: Flag-ACKR3-RlucII (human) (UniProt P25106)
Conditions: scale: log EC50

Sequence of Flag-ACKR3-RlucII (human) (P25106 whole entry): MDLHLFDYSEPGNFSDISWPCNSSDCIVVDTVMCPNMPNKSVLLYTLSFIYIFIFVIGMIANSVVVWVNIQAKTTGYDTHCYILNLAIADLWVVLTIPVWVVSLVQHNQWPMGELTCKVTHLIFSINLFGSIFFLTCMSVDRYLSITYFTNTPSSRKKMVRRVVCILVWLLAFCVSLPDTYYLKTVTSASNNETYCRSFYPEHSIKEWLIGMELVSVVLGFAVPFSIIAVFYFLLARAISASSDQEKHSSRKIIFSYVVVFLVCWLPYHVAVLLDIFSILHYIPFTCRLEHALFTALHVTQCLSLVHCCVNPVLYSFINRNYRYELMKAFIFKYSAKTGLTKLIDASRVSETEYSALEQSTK

wild-type CXCL12 (CXCL12WT) (from UniProt P48061 22-93) (ligand)
log EC50 of GFP10–β-arrestin 2 recruitment to ACKR3-RlucII (BRET) as a function of CXCL12WT, with 2 μM CID25: -8.89
log EC50 of GFP10–β-arrestin 2 recruitment to ACKR3-RlucII (BRET) as a function of CXCL12WT, without CID25: -8.87
